Reference: patent US20160176956A1 (Novartis, published 2016)
Where two headings read alike, the source gives them in different places.

T1: human BMP6 (human, UniProt P22004 382-513, limits assumed)
T1 sequence: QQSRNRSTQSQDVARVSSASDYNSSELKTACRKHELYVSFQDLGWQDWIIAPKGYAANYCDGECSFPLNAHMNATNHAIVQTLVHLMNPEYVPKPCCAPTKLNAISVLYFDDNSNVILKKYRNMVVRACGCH

T2: human BMP7 (human, UniProt P18075 293-431)
T2 sequence: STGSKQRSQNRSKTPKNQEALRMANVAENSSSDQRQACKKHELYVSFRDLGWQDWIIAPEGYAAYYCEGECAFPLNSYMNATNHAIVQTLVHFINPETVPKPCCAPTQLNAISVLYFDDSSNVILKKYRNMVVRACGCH

T3: mouse BMP6 (mouse, UniProt P20722 372-510, limits assumed)
T3 construct: also called mBMP6; mBMP6_RD
T3 sequence (looked up): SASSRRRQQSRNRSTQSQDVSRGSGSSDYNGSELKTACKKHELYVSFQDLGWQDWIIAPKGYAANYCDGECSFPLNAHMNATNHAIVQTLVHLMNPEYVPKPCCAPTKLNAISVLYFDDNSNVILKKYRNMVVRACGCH

T4: human BMP5 (human, UniProt P22003 317-454, limits assumed)
T4 sequence: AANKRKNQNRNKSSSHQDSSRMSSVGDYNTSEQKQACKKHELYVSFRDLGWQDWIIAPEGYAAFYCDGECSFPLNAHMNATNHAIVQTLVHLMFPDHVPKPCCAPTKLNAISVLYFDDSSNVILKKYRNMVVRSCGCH


What was measured:
human BMP6 [1] = molecular target: T1, human BMP6; test: specificity ELISA, coated antigen, IgG 0.2 uM
Experimental: (§1) After washing the plates three times with 100 uL TBST, each antigen was incubated with 40 uL of purified Fab or IgG samples at a concentration of 1 uM and 0.2 uM respectively (in PBST buffer).
(§2) After 2 h incubation at RT, the plates were again washed three times and bound Fabs/IgGs detected by adding 40 uL of a 1:5000 dilution of secondary AP-conjugated anti-human IgG F(ab2) antibody. After 1 h at RT, the signal was developed by adding 40 uL AttoPhos substrate according to the manufacturer's protocol and the plates were analyzed immediately using an excitation wavelength of 430 nm and an emission wavelength of 535 nm with an ELISA plate reader.

human BMP7 [2] = molecular target: T2, human BMP7; test: specificity ELISA, coated antigen, IgG 0.2 uM
Experimental: as §1, §2

mouse BMP6 = molecular target: T3, mouse BMP6; test: specificity ELISA, coated antigen, IgG 0.2 uM
Experimental: as §1, §2

Bovine serum albumin [3] = molecular target: T5, Bovine serum albumin (bovine, UniProt P02769 25-607); test: specificity ELISA, coated antigen, IgG 0.2 uM
T5 construct: unrelated control antigen in the specificity ELISA; also called BSA
T5 sequence (P02769 25-607 limits assumed): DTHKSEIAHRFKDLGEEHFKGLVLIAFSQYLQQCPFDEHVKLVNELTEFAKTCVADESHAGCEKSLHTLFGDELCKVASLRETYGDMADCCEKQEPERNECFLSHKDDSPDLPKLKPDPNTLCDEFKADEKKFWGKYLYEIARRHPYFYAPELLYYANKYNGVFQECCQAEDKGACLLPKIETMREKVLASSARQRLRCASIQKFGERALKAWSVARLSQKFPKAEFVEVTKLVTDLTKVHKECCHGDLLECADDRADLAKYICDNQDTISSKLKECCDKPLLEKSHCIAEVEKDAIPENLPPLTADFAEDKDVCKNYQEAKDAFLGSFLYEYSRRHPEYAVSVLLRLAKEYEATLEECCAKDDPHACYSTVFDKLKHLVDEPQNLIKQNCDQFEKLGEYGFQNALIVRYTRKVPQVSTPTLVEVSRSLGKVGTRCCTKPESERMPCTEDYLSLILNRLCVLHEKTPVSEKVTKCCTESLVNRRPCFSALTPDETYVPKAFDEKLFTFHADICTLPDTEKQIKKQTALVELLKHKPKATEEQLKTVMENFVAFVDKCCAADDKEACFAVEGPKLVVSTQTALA
Experimental: as §1, §2

human BMP5 [4] = molecular target: T4, human BMP5; test: specificity ELISA, coated antigen, IgG 0.2 uM
Experimental: as §1, §2

human BMP2 [5] = molecular target: T6, human BMP2 (human, UniProt P12643 283-396); test: cell-based or functional assay
T6 sequence (P12643 283-396 limits assumed): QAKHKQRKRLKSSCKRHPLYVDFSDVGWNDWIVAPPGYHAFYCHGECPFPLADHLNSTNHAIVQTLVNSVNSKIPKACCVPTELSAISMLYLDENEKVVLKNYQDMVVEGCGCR

human BMP6 [6] = molecular target: T1, human BMP6; test: cell-based or functional assay
human BMP7 [7] = molecular target: T2, human BMP7; test: cell-based or functional assay
human BMP2 [8] = molecular target: T6, human BMP2; test: cell-based or functional assay; remark: listed apart in the source
human BMP6 [9] = molecular target: T1, human BMP6; test: cell-based or functional assay; remark: listed apart in the source
human BMP7 [10] = molecular target: T2, human BMP7; test: cell-based or functional assay; remark: listed apart in the source
human BMP6 [11] = molecular target: T1, human BMP6; test: method not stated in the table (Table 7 names Biacore)
human BMP6 [12] = molecular target: T1, human BMP6; test: cell-based or functional assay; remark: listed apart in the source
human BMP6 [13] = molecular target: T1, human BMP6; test: cell-based or functional assay; remark: listed apart in the source
[14] = molecular target: 384 purified extracellular or secretory proteins (Protagen UNIchip); test: Protagen UNIchip protein chip with 384 purified extracellular or secretory proteins, purified hIgG1
human BMP6 [15] = molecular target: T1, human BMP6; test: Biacore
human BMP6 [16] = molecular target: T1, human BMP6; test: cell-based or functional assay; remark: listed apart in the source
human BMP5 [17] = molecular target: T4, human BMP5; test: cell-based or functional assay
human BMP5 [18] = molecular target: T4, human BMP5; test: cell-based or functional assay; remark: listed apart in the source
Bovine serum albumin [19] = molecular target: T5, Bovine serum albumin; test: ELISA on coated antigen, detection with anti-Fab-AP, fluorescence signal intensity
human BMP6 [20] = molecular target: T1, human BMP6; test: ELISA binding assay; reference human BMP7
human BMP2 [21] = molecular target: T6, human BMP2; test: cell-based or functional assay; remark: listed apart in the source

Signal over background (human BMP6 [1])	Signal over background (human BMP7 [2])	Signal over background (mouse BMP6)	Signal over background (Bovine serum albumin [3])	Signal over background (human BMP5 [4])	BRE-luc reporter IC50 in Hep3B (human BMP6 [6]) [nM]	selectivity window of BMP6 over this BMP (BRE-luc reporter) (human BMP7 [7]) [fold]	RGA IC50 (human BMP2 [8]) [µg/mL]	RGA max (human BMP2 [8])	RGA min (human BMP2 [8])	RGA IC50 (human BMP6 [9]) [µg/mL]	RGA max (human BMP6 [9])	RGA min (human BMP6 [9])	RGA IC50 (human BMP7 [10]) [µg/mL]	RGA max (human BMP7 [10])	RGA min (human BMP7 [10])	Kd (human BMP6 [11]) [nM]	IC50 (read off the curve); BMP6-induced BRE-luc reporter activity in HEP3B cells (human BMP6 [12]) [nM]	IC50(ug/ml) BMP6 reporter (human BMP6 [13]) [µg/mL]	off-target hits [14] [hits]	Molecule	further results
61	14	18	1	4																Control IgG (antibody)	
65	8	24	1		0.4	≥ 500	> 25	1	0.9	0.04	0.9	0.02	25	1	0.5	0.1	~0.5	0.06	< 10	Antibody 5 (antibody, human IgG1, lambda, V domains shown, germlined clone of NOV0787 (HCDR2-matured NOV0442_VL[Y49,G50,N51Q]); human IgG1; lead antibody; also called NOV0951; NOV951) VH: QVQLVESGGGLVKPGGSLRLSCAASGFTFSSYVVHWVRQAPGKGLEWVGRIKRESSSYTTMYAAPVKGRFTISRDDSKNTLYLQMNSLKTEDTAVYYCARVERSKSGFDNWGQGTLVTVSS VL: QSVLTQPPSVSGAPGQRVTISCTGSSSNIGAGYSVHWYQQLPGTAPKLLIYGQSERPSGVPDRFSGSKSGTSASLAITGLQAEDEADYYCQSWDSSQTLVVFGGGTKLTVLG	selectivity window of BMP6 over this BMP (BRE-luc reporter) (human BMP2 [5]): ≥ 500 fold; Kd (human BMP6 [15]): ~0.1 nM; BRE-Luc RGA IC50 (human BMP6 [16]): 0.26 nM; RGA selectivity, hBMP6 over hBMP7 (human BMP6 [16]): ~1000 fold
38	3	29	1	2	0.4	≥ 500	> 25	1	1	0.05	1	0.02	25	0.9	0.5	< 0.1	~0.5	0.08	< 10	Antibody 6 (antibody, human IgG1, lambda, V domains shown, germlined clone of NOV0798 (HCDR2-matured NOV0442_VL[Y49,G50,N51Q]); human IgG1; lead antibody; also called NOV0954; NOV954) VH: QVQLVESGGGLVKPGGSLRLSCAASGFTFSSYVVHWVRQAPGKGLEWVGRTRHSDMGYATSYAAPVKGRFTISRDDSKNTLYLQMNSLKTEDTAVYYCARVERSKSGFDNWGQGTLVTVSS VL: QSVLTQPPSVSGAPGQRVTISCTGSSSNIGAGYSVHWYQQLPGTAPKLLIYGQSERPSGVPDRFSGSKSGTSASLAITGLQAEDEADYYCQSWDSSQTLVVFGGGTKLTVLG	selectivity window of BMP6 over this BMP (BRE-luc reporter) (human BMP2 [5]): ≥ 500 fold; selectivity window of BMP6 over this BMP (BRE-luc reporter) (human BMP5 [17]): ≥ 500 fold; RGA IC50 (human BMP5 [18]): > 25 µg/mL; RGA max (human BMP5 [18]): 1; RGA min (human BMP5 [18]): 0.9; Kd (human BMP6 [15]): ~0.1 nM; BRE-Luc RGA IC50 (human BMP6 [16]): 0.3 nM; RGA selectivity, hBMP6 over hBMP7 (human BMP6 [16]): ~1000 fold
48	2	29	1	1			> 25	1	0.8	0.08	0.9	0.02	> 25	1	0.8					Antibody 3 (antibody, human IgG1, lambda, V domains shown, germlined clone of NOV0800 (HCDR2-matured NOV0442_VL[Y49,G50,N51S]); human IgG1; back-up antibody; also called NOV0961; NOV961) VH: QVQLVESGGGLVKPGGSLRLSCAASGFTFSSYVVHWVRQAPGKGLEWVGRIKDHKQGYTTAYAASVKGRFTISRDDSKNTLYLQMNSLKTEDTAVYYCARVERSKSGFDNWGQGTLVTVSS VL: QSVLTQPPSVSGAPGQRVTISCTGSSSNIGAGYSVHWYQQLPGTAPKLLIYGSSERPSGVPDRFSGSKSGTSASLAITGLQAEDEADYYCQSWDSSQTLVVFGGGTKLTVLG	RGA IC50 (human BMP5 [18]): > 25 µg/mL; RGA max (human BMP5 [18]): 0.9; RGA min (human BMP5 [18]): 0.8
59	7	32	1		0.4	≥ 500				0.04	0.9	0.02	25	0.9	0.5	0.1	~0.5	0.07	< 10	Antibody 7 (antibody, human IgG1, lambda, V domains shown, germlined clone of NOV0806 (HCDR2-matured NOV0442_VL[Y49,G50,N51Q]); human IgG1; final lead; also called NOV0958; NOV958) VH: QVQLVESGGGLVKPGGSLRLSCAASGFTFSSYVVHWVRQAPGKGLEWVGRIRLETHGYAAEYAASVKGRFTISRDDSKNTLYLQMNSLKTEDTAVYYCARVERSKSGFDNWGQGTLVTVSS VL: QSVLTQPPSVSGAPGQRVTISCTGSSSNIGAGYSVHWYQQLPGTAPKLLIYGQSERPSGVPDRFSGSKSGTSASLAITGLQAEDEADYYCQSWDSSQTLVVFGGGTKLTVLG	binding result (Bovine serum albumin [19]): no binding (tested: not given on the sheet); selectivity window of BMP6 over this BMP (BRE-luc reporter) (human BMP5 [17]): ≥ 500 fold; RGA IC50 (human BMP5 [18]): > 25 µg/mL; RGA max (human BMP5 [18]): 1.1; RGA min (human BMP5 [18]): 1.1; Kd (human BMP6 [15]): ~0.1 nM; BRE-Luc RGA IC50 (human BMP6 [16]): 0.26 nM; RGA selectivity, hBMP6 over hBMP7 (human BMP6 [16]): ~1000 fold; fold selectivity for human BMP6 over human BMP7 (human BMP6 [20]): > 500 fold; RGA IC50 (human BMP2 [21]): > 25 µg/mL; RGA max (human BMP2 [21]): 0.9; RGA min (human BMP2 [21]): 1.1; selectivity window of BMP6 over this BMP (BRE-luc reporter) (human BMP2 [21]): > 500 fold
